Reference: patent US20060257938A1, “Method of screening for drugs that block ligand binding to a lipid binding protein” (priority 2005, published 2006)

Legend:
Assay type in all cases: binding
[1] = Probe fluorescence ratio response to arachidonic acid relative to ADIFAB2; details: arachidonic acid; response relative to ADIFAB2
Summary of the method: (§1)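 Each fatty acid's response was expressed relative to ADIFAB2, the rI-FABP-L72A probe, as ΔR/ΔRreference. ΔR is the change in the background-corrected two-wavelength intensity ratio R=Fλ1/Fλ2 from its analyte-free baseline R0. Emission was read near about 420-480 nm for unbound and about 495-580 nm for FFA-bound probe.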

[2] = Probe fluorescence ratio response to linolenic acid relative to ADIFAB2; details: response relative to ADIFAB2
Summary of the method: as §1

[3] = Probe fluorescence ratio response to linoleic acid relative to ADIFAB2; details: response relative to ADIFAB2
Summary of the method: as §1

[4] = Probe fluorescence ratio response to oleic acid relative to ADIFAB2; details: response relative to ADIFAB2
Summary of the method: as §1

[5] = Probe fluorescence ratio response to palmitic acid relative to ADIFAB2; details: response relative to ADIFAB2
Summary of the method: as §1

| Molecule | DR/DR AA [1] | DR/DR LNA [2] | DR/DR LA [3] | DR/DR OA [4] | DR/DR PA [5] |
| --- | --- | --- | --- | --- | --- |
| 49M, 72A (protein, listed as Rattus norvegicus, PEPTIDE (1)...(131) wild-type rat intestinal fatty acid binding protein) AFDGTWKVDRNENYEKFMEKMGINVVKRKLGAHDNLKLTITQEGNKFTMKESSNFRNIDVVFELGVDFAYSAADGTELTGTWTMEGNKLVGKFKRVDNGKELIAVREISGNELIQTYTYEGVEAKRIFKKE | 1.363 | 1.369 | 1.370 | 1.296 | 0.939 |
| 91C, 72A (protein, listed as Rattus norvegicus, PEPTIDE (1)...(131) wild-type rat intestinal fatty acid binding protein) AFDGTWKVDRNENYEKFMEKMGINVVKRKLGAHDNLKLTITQEGNKFTVKESSNFRNIDVVFELGVDFAYSAADGTELTGTWTMEGNKLVCKFKRVDNGKELIAVREISGNELIQTYTYEGVEAKRIFKKE | 1.201 | 1.420 | 1.371 | 1.470 | 0.794 |
| 14L 38I 72A (protein, listed as Rattus norvegicus, PEPTIDE (1)...(131) wild-type rat intestinal fatty acid binding protein) AFDGTWKVDRNENLEKFMEKMGINVVKRKLGAHDNLKITITQEGNKFTVKESSNFRNIDVVFELGVDFAYSAADGTELTGTWTMEGNKLVGKFKRVDNGKELIAVREISGNELIQTYTYEGVEAKRIFKKE | 1.046 | 1.177 | 1.090 | 0.653 | 0.712 |
| 40V, 72A (protein, listed as Rattus norvegicus, PEPTIDE (1)...(131) wild-type rat intestinal fatty acid binding protein) AFDGTWKVDRNENYEKFMEKMGINVVKRKLGAHDNLKLTVTQEGNKFTVKESSNFRNIDVVFELGVDFAYSAADGTELTGTWTMEGNKLVGKFKRVDNGKELIAVREISGNELIQTYTYEGVEAKRIFKKE | 1.013 | 1.059 | 1.057 | 1.002 | 0.867 |
| 119L, 72A (protein, listed as Rattus norvegicus, PEPTIDE (1)...(131) wild-type rat intestinal fatty acid binding protein) AFDGTWKVDRNENYEKFMEKMGINVVKRKLGAHDNLKLTITQEGNKFTVKESSNFRNIDVVFELGVDFAYSAADGTELTGTWTMEGNKLVGKFKRVDNGKELIAVREISGNELIQTYTLEGVEAKRIFKKE | 1.021 | 1.053 | 1.134 | 0.778 | 0.661 |
| 115W, 72A (protein, listed as Rattus norvegicus, PEPTIDE (1)...(131) wild-type rat intestinal fatty acid binding protein) AFDGTWKVDRNENYEKFMEKMGINVVKRKLGAHDNLKLTITQEGNKFTVKESSNFRNIDVVFELGVDFAYSAADGTELTGTWTMEGNKLVGKFKRVDNGKELIAVREISGNELIWTYTYEGVEAKRIFKKE | 1.483 | 1.396 | 1.486 | 1.352 | 0.805 |
| 72A 117A (protein, listed as Rattus norvegicus, PEPTIDE (1)...(131) wild-type rat intestinal fatty acid binding protein) AFDGTWKVDRNENYEKFMEKMGINVVKRKLGAHDNLKLTITQEGNKFTVKESSNFRNIDVVFELGVDFAYSAADGTELTGTWTMEGNKLVGKFKRVDNGKELIAVREISGNELIQTATYEGVEAKRIFKKE | 1.480 | 0.689 | 1.193 | 1.080 | 0.433 |
| 38G, 72A (protein, listed as Rattus norvegicus, PEPTIDE (1)...(131) wild-type rat intestinal fatty acid binding protein) AFDGTWKVDRNENYEKFMEKMGINVVKRKLGAHDNLKGTITQEGNKFTVKESSNFRNIDVVFELGVDFAYSAADGTELTGTWTMEGNKLVGKFKRVDNGKELIAVREISGNELIQTYTYEGVEAKRIFKKE | 0.996 | 0.992 | 1.003 | 0.945 | 0.447 |
| 70S, 72A (protein, listed as Rattus norvegicus, PEPTIDE (1)...(131) wild-type rat intestinal fatty acid binding protein) AFDGTWKVDRNENYEKFMEKMGINVVKRKLGAHDNLKLTITQEGNKFTVKESSNFRNIDVVFELGVDFASSAADGTELTGTWTMEGNKLVGKFKRVDNGKELIAVREISGNELIQTYTYEGVEAKRIFKKE | 0.625 | 0.703 | 0.794 | 0.727 | 0.416 |
| 70W, 72A (protein, listed as Rattus norvegicus, PEPTIDE (1)...(131) wild-type rat intestinal fatty acid binding protein) AFDGTWKVDRNENYEKFMEKMGINVVKRKLGAHDNLKLTITQEGNKFTVKESSNFRNIDVVFELGVDFAWSAADGTELTGTWTMEGNKLVGKFKRVDNGKELIAVREISGNELIQTYTYEGVEAKRIFKKE | 0.349 | 0.385 | 0.451 | 0.381 | 0.212 |
| 31W, 72A (protein, listed as Rattus norvegicus, PEPTIDE (1)...(131) wild-type rat intestinal fatty acid binding protein) AFDGTWKVDRNENYEKFMEKMGINVVKRKLWAHDNLKLTITQEGNKFTVKESSNFRNIDVVFELGVDFAYSAADGTELTGTWTMEGNKLVGKFKRVDNGKELIAVREISGNELIQTYTYEGVEAKRIFKKE | 0.993 | 1.031 | 1.147 | 0.868 | 0.618 |
| 106F, 72A (protein, listed as Rattus norvegicus, PEPTIDE (1)...(131) wild-type rat intestinal fatty acid binding protein) AFDGTWKVDRNENYEKFMEKMGINVVKRKLGAHDNLKLTITQEGNKFTVKESSNFRNIDVVFELGVDFAYSAADGTELTGTWTMEGNKLVGKFKRVDNGKELIAVFEISGNELIQTYTYEGVEAKRIFKKE | 0.754 | 0.706 | 0.812 | 0.815 | 0.369 |
| 40M, 72A (protein, listed as Rattus norvegicus, PEPTIDE (1)...(131) wild-type rat intestinal fatty acid binding protein) AFDGTWKVDRNENYEKFMEKMGINVVKRKLGAHDNLKLTMTQEGNKFTVKESSNFRNIDVVFELGVDFAYSAADGTELTGTWTMEGNKLVGKFKRVDNGKELIAVREISGNELIQTYTYEGVEAKRIFKKE | 0.993 | 1.021 | 1.086 | 0.990 | 0.691 |
| 18K, 72A (protein, listed as Rattus norvegicus, PEPTIDE (1)...(131) wild-type rat intestinal fatty acid binding protein) AFDGTWKVDRNENYEKFKEKMGINVVKRKLGAHDNLKLTITQEGNKFTVKESSNFRNIDVVFELGVDFAYSAADGTELTGTWTMEGNKLVGKFKRVDNGKELIAVREISGNELIQTYTYEGVEAKRIFKKE | 0.800 | 0.925 | 0.967 | 0.803 | 0.544 |
| 126K, 72A (protein, listed as Rattus norvegicus, PEPTIDE (1)...(131) wild-type rat intestinal fatty acid binding protein) AFDGTWKVDRNENYEKFMEKMGINVVKRKLGAHDNLKLTITQEGNKFTVKESSNFRNIDVVFELGVDFAYSAADGTELTGTWTMEGNKLVGKFKRVDNGKELIAVREISGNELIQTYTYEGVEAKKIFKKE | 0.625 | 1.017 | 1.039 | 0.631 | 0.356 |
| 91Y, 72A (protein, listed as Rattus norvegicus, PEPTIDE (1)...(131) wild-type rat intestinal fatty acid binding protein) AFDGTWKVDRNENYEKFMEKMGINVVKRKLGAHDNLKLTITQEGNKFTVKESSNFRNIDVVFELGVDFAYSAADGTELTGTWTMEGNKLVYKFKRVDNGKELIAVREISGNELIQTYTYEGVEAKRIFKKE | 1.273 | 1.626 | 1.415 | 1.706 | 0.870 |
| 70H, 72A (protein, listed as Rattus norvegicus, PEPTIDE (1)...(131) wild-type rat intestinal fatty acid binding protein) AFDGTWKVDRNENYEKFMEKMGINVVKRKLGAHDNLKLTITQEGNKFTVKESSNFRNIDVVFELGVDFAHSAADGTELTGTWTMEGNKLVGKFKRVDNGKELIAVREISGNELIQTYTYEGVEAKRIFKKE | 0.751 | 0.886 | 0.929 | 0.836 | 0.567 |
